Target: proteasomal core particle (WT) (yeast (endogenous)) (UniProt P21243)
Assay: stimulation of CP peptidase activity (suc-LLVY-AMC) by titrated base; base titrated against 2 nM CP, preincubated 15 min at 30 °C; 5 μM suc-LLVY-AMC; initial rates fitted to a hyperbola (Michaelis–Menten); surrogate readout for base–CP interaction

| Kd | Substance |
| --- | --- |
| 145 nM | base subcomplex purified from nas6Δ rpt3-Δ3 cells, P38764 1-993; P32565 1-945; O13563 1-156; P33299 1-467; P40327 1-437; P33298 1-428; P53549 1-437; P33297 1-434; Q01939 1-405 |
| 36 nM | base subcomplex purified from nas6Δ cells (WT Rpt3), P38764 1-993; P32565 1-945; O13563 1-156; P33299 1-467; P40327 1-437; P33298 1-428; P53549 1-437; P33297 1-434; Q01939 1-405 |
